Experimental data: patent publication US20090191117A1

Biological target: αvβ3 and αvβ5 integrins on human umbilical vein endothelial cells (human), P06756
Test: cell-based or functional assay

HUVEC adhesion to fibrin, percent of adhesion without antibody, antibody at 10 µg/ml: 45.1%
HUVEC adhesion to fibrinogen, percent of adhesion without antibody, antibody at 10 µg/ml: 34.5%
HUVEC adhesion to gelatin, percent of adhesion without antibody, antibody at 10 µg/ml: 54.8%
HUVEC adhesion to vitronectin, percent of adhesion without antibody, antibody at 10 µg/ml: 3.3%
B1: CNTO 95 (antibody, V domains shown)
VH: QVQLVESGGGVVQPGRSRRLSCAASGFTFSRYTMHWVRQAPGKGLEWVAVISFDGSNKYYVDSVKGRFTISRDNSENTLYLQVNILRAEDTAVYYCAREARGSYAFDIWGQGTMVTVSS
VL: EIVLTQSPATLSLSPGERATLSCRASQSVSSYLAWYQQKPGQAPRLLIYDASNRATGIPARFSGSGSGTDFTLTISSLEPEDFAVYYCQQRSNWPPFTFGPGTKVDIK
